B1: P60 9-mer … (FOXA1.p.F266L) (peptide)
peptide: YLRRQKRLK
modifications: here or on the partner: biotinylated heavy chain
B2: Exchange control peptide … (peptide)
peptide: LIYRRRLMK
modifications: not checked
B3: P98 9-mer … (TP53 R213D frameshift) (peptide)
peptide: IVWWCPMSR
modifications: here or on the partner: biotinylated heavy chain
B4: P76 9-mer … (AR-V3) (peptide)
peptide: YCMAAPMGL
modifications: here or on the partner: biotinylated heavy chain
B5: P82 9-mer … (AR-V7) (peptide)
peptide: RVGNCKHLK
modifications: here or on the partner: biotinylated heavy chain
B6: P22 9-mer … (SLC45A3-ELK4 fusion) (peptide)
peptide: QLIAMDSAI
modifications: here or on the partner: biotinylated heavy chain
B7: P17 9-mer … (MSMB-NOCA4 fusion) (peptide)
peptide: RAVRRMNTF
modifications: here or on the partner: biotinylated heavy chain
B8: P87 9-mer … (AR-Intron) (peptide)
peptide: FLFLLLPLS
modifications: here or on the partner: biotinylated heavy chain
B9: P19 9-mer … (TMEM222-LOC644061 fusion) (peptide)
peptide: IPVLTRWPL
modifications: here or on the partner: biotinylated heavy chain
B10: P46 9-mer … (TP53 R213D frameshift) (peptide)
peptide: CPMSRLRLA
modifications: here or on the partner: biotinylated heavy chain
B11: P97 9-mer … (FOXRED2-TXN2 fusion) (peptide)
peptide: LMAQRLLLR
modifications: here or on the partner: biotinylated heavy chain
B12: P61 9-mer … (FOXA1.p.R261G) (peptide)
peptide: CYLGRQKRF
modifications: here or on the partner: biotinylated heavy chain
B13: P73 9-mer … (TP53 G266E) (peptide)
peptide: LLERNSFEV
modifications: here or on the partner: biotinylated heavy chain
B14: P58 9-mer … (AR Q903H) (peptide)
peptide: HVPKILSGK
modifications: here or on the partner: biotinylated heavy chain
B15: P48 9-mer … (AR.p.H875Y) (peptide)
peptide: YQFTFDLLI
modifications: here or on the partner: biotinylated heavy chain
B16: Exchange control peptide … (peptide)
peptide: NPKASLLSL
modifications: not checked
B17: P56 9-mer … (SPOP F102C) (peptide)
peptide: RAKCKFSIL
modifications: here or on the partner: biotinylated heavy chain

What was measured:
Assay in all cases: UV peptide exchange; HLA class I ELISA
Settings in all cases: remark: other sources report otherwise
HLA-A*01:01 (human) = molecular target: HLA-A*01:01 (human)
HLA-A*02:01 (human) = molecular target: HLA-A*02:01 (human)
HLA-A*03:01 (human) = molecular target: HLA-A*03:01 (human)
HLA-A*24:02 (human) = molecular target: HLA-A*24:02 (human)
HLA-B*07:02 (human) = molecular target: HLA-B*07:02 (human)
HLA-B*08:01 (human) = molecular target: HLA-B*08:01 (human)
HLA-B*27:05 (human) = molecular target: HLA-B*27:05 (human)

| Binder | exchange rate with Pos (HLA-A*01:01 (human)) | exchange rate with Pos (HLA-A*02:01 (human)) | exchange rate with Pos (HLA-A*03:01 (human)) | exchange rate with Pos (HLA-A*24:02 (human)) | exchange rate with Pos (HLA-B*07:02 (human)) | exchange rate with Pos (HLA-B*08:01 (human)) | other results |
| --- | --- | --- | --- | --- | --- | --- | --- |
| B1 | 3.1% | 7.9% | 36.6% | 0.9% | 6.1% | 10.2% | – |
| B2 | – | – | – | – | – | – | Average % (HLA-B*07:02 (human)): 13.7%; Exch I (%) (HLA-B*07:02 (human)): 13%; Exch II (%) (HLA-B*07:02 (human)): 14.3% |
| B3 | 2.5% | 7.9% | 51.1% | -0.1% | 6.7% | 2.4% | – |
| B4 | 0.1% | 85.9% | 6% | -0.5% | 91.5% | – | – |
| B5 | 1.5% | 6.3% | 58.1% | -0.1% | 12.9% | 1.4% | – |
| B6 | 4.4% | 46.9% | 4.8% | 0% | 8.3% | 3.9% | Average % (HLA-A*01:01 (human)): 5%; Exch I (%) (HLA-A*01:01 (human)): 5%; Exch II (%) (HLA-A*01:01 (human)): 4.9%; Average % (HLA-A*02:01 (human)): 41.5%; Exch I (%) (HLA-A*02:01 (human)): 40%; Exch II (%) (HLA-A*02:01 (human)): 43.1%; Average % (HLA-A*24:02 (human)): 4.5%; Exch I (%) (HLA-A*24:02 (human)): 4.8%; Exch II (%) (HLA-A*24:02 (human)): 4.1%; Average % (HLA-B*07:02 (human)): 12%; Exch I (%) (HLA-B*07:02 (human)): 12.2%; Exch II (%) (HLA-B*07:02 (human)): 11.8%; Average % (HLA-B*08:01 (human)): 7.9%; Exch I (%) (HLA-B*08:01 (human)): 8%; Exch II (%) (HLA-B*08:01 (human)): 7.8%; Average % (HLA-B*27:05 (human)): 4.3%; Exch I (%) (HLA-B*27:05 (human)): 4.7%; Exch II (%) (HLA-B*27:05 (human)): 3.9% |
| B7 | 4.9% | – | 3.8% | 0.1% | 38.7% | 9% | – |
| B8 | 1.1% | 64% | 2.4% | 0.2% | 5% | 3.1% | – |
| B9 | 5.2% | 8.2% | 4.1% | 0.1% | 91.3% | 14.5% | – |
| B10 | 2.4% | 14.4% | 10.3% | -0.4% | 64.8% | 14.5% | – |
| B11 | 2.5% | 4.6% | 39% | 0.1% | 7% | 2.7% | – |
| B12 | 1.7% | 5.8% | – | 90.3% | – | 3.6% | – |
| B13 | – | 89.2% | 3.5% | 0.5% | 8.7% | 2.6% | – |
| B14 | 2.5% | 11.8% | 32.5% | 0.2% | – | 5.3% | – |
| B15 | 4.3% | 99.3% | 4.4% | 0.1% | 12.8% | – | – |
| B16 | – | – | – | – | – | – | Average % (HLA-A*01:01 (human)): 6.5%; Exch I (%) (HLA-A*01:01 (human)): 7.4%; Exch II (%) (HLA-A*01:01 (human)): 5.6% |
| B17 | 2.6% | 8.4% | 6.8% | 0.5% | 82.5% | 38% | – |
